Experimental data reported in the supplement of paper PMC7877785.
± gives the uncertainty stated by the source.

Assay: self-splicing fitness, log relative to wild type (ln ratio); higher = more splicing; Tetrahymena group I intron in knt gene, E. coli kanamycin selection, DiMSum; sequences stand for … in CUCUCU…GGAGGGAAAAGUUAUCAGGCAUGCACCUGGUAGCUAGUCUUUAAACCAAUAGAUUGCAUCGGUUUAAAAGGCAAGACCGUCAAAUUGCGGGAAAGGGGUCAACAGCCGUUCAGUACCAAGUCUCAGGGGAAACUUUGAGAUGGCCUUGCAAAGGGUAUGGUAAUAAGCUGACGGACAUGGUCCUAACCACGCAGCCAAGUCCUAAGUCAACAGAUCUUCUGUUGAUAUGGAUGCAGUUCACAGACUAAAUGUCGGUCGGGGAAGAUGUAUUCUUCUCAUAAGAUAUAGUCGGACCUCUCCUUAAUGGGAGCUAGCGGAUGAAGUGAUGCAACACUGGAGCCGCUGGGAACUAAUUUGUAUGCGAAAGUAUAUUGAUUAGUUUUGGAGUACUCGUGGUCG
Procedure, shortened: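 Library with all eight P1ex-region intron nucleotides randomised, intron inside the knt kanamycin-resistance gene on pET-22b(+), in E. coli BL21(DE3). Cells grew overnight at 37°C or 30°C on LB agar with or without 25 μg/mL kanamycin (plus 100 μg/mL carbenicillin, 50 μM IPTG, 0.2% rhamnose), in six replicate transformations. Pooled colonies were amplicon-sequenced on Illumina HiSeq 2500. DiMSum fitness is the error-weighted combination of wild-type-normalised replicate fold changes, kanamycin versus none.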

Sequence	self-splicing fitness (ln) (30 °C)	self-splicing fitness (ln) (37 °C)
GUCCAGCAAUAUUACGUUUG	-2.85 ± 0.11	-0.981 ± 0.1
UUCCAGCAAUAUUACGCCUG	-3.5 ± 0.47	-2.35 ± 0.39
ACCUAGCAAUAUUACGGCCU	-0.404 ± 0.069	-0.963 ± 0.075
GAGGAGCAAUAUUACGUACA	-3.14 ± 0.32	-0.612 ± 0.2
GCGUAGCAAUAUUACGACAG	-2.66 ± 0.48	-0.456 ± 0.44
UGUGAGCAAUAUUACGUACG	-0.814 ± 0.1	-0.164 ± 0.12
GUCCAGCAAUAUUACGUCGC	-0.994 ± 0.096	0.0208 ± 0.12
CAGAAGCAAUAUUACGUUUU	-3.33 ± 0.14	-3.58 ± 0.19
CAUAAGCAAUAUUACGAUCA	-2.28 ± 0.21	-1.87 ± 0.2
GUUGAGCAAUAUUACGUUGG	-4.19 ± 0.28	-2.01 ± 0.31
UUUAAGCAAUAUUACGAUGA	0.318 ± 0.13	-0.175 ± 0.14
AUAGAGCAAUAUUACGUCAG	-3.64 ± 0.28	-2.66 ± 0.23
GGUCAGCAAUAUUACGAUUC	-0.716 ± 0.079	-0.325 ± 0.11
GCUUAGCAAUAUUACGUCCA	-1.72 ± 0.14	-0.697 ± 0.14
AAUUAGCAAUAUUACGGCAG	-0.691 ± 0.11	-0.322 ± 0.1
CGCCAGCAAUAUUACGAGGU	-4.39 ± 0.28	-1.89 ± 0.18
CUGUAGCAAUAUUACGUCCA	–	-2.89 ± 0.48
GUAUAGCAAUAUUACGGGAU	-3.5 ± 0.29	-0.308 ± 0.11
ACACAGCAAUAUUACGUUGU	-2.31 ± 0.09	-2.6 ± 0.14
CGUCAGCAAUAUUACGCUUC	-3.46 ± 0.36	-3.11 ± 0.31
UUACAGCAAUAUUACGUAUG	-0.997 ± 0.054	-0.53 ± 0.068
GAUAAGCAAUAUUACGAUUA	-0.905 ± 0.12	0.0831 ± 0.12
AUGGAGCAAUAUUACGUCAA	-1.77 ± 0.35	-0.821 ± 0.36
AAUUAGCAAUAUUACGAAGU	-2.79 ± 0.21	-1.05 ± 0.17
CAUAAGCAAUAUUACGAGCA	-3.98 ± 0.37	-1.77 ± 0.2

Sequence	self-splicing fitness (ln) (30 °C)	self-splicing fitness (ln) (37 °C)
AGCGAGCAAUAUUACGUCCU	-0.026 ± 0.17	-0.661 ± 0.18
ACCCAGCAAUAUUACGUGAA	-0.191 ± 0.041	0.202 ± 0.063
UGCUAGCAAUAUUACGAUUU	-2.4 ± 0.18	-1.1 ± 0.16
UGUUAGCAAUAUUACGCUGU	-2.07 ± 0.23	-0.914 ± 0.2
CCCGAGCAAUAUUACGCGGA	-3.21 ± 0.28	-2.23 ± 0.2
AGGUAGCAAUAUUACGCUCG	-0.57 ± 0.017	-0.241 ± 0.036
ACUGAGCAAUAUUACGCUAC	-3.24 ± 0.24	–
UUGCAGCAAUAUUACGCAUA	-1.6 ± 0.13	-0.643 ± 0.12
GCUGAGCAAUAUUACGAUCA	–	-1.55 ± 0.35
UGGGAGCAAUAUUACGCUCA	–	-2.72 ± 0.28
CGUGAGCAAUAUUACGCUAA	–	-1.26 ± 0.48
CAAAAGCAAUAUUACGAGCC	-3.49 ± 0.3	–
AGGGAGCAAUAUUACGUUCU	-3.19 ± 0.44	–
CUCUAGCAAUAUUACGCUCC	–	-1.03 ± 0.36
UGCCAGCAAUAUUACGCUGU	-3.59 ± 0.37	-1.37 ± 0.17
AAGGAGCAAUAUUACGACUG	-1.75 ± 0.16	-1.05 ± 0.18
CGAAAGCAAUAUUACGUCUC	-2.71 ± 0.42	-1.15 ± 0.26
UCUUAGCAAUAUUACGAGUC	–	-2.22 ± 0.36
AGGGAGCAAUAUUACGAAGG	-2.19 ± 0.31	–
GGCUAGCAAUAUUACGAAUA	-0.326 ± 0.37	-1.7 ± 0.28
CAGUAGCAAUAUUACGGAGA	-2.32 ± 0.24	–
AGCGAGCAAUAUUACGCUGC	-1.51 ± 0.39	-2.23 ± 0.42
GCAGAGCAAUAUUACGAUAA	-3.38 ± 0.41	-2.72 ± 0.44
AAACAGCAAUAUUACGAUCG	-2.18 ± 0.11	-0.0291 ± 0.11
GGUAAGCAAUAUUACGGCUU	-0.104 ± 0.075	0.352 ± 0.11

Sequence	self-splicing fitness (ln) (30 °C)	self-splicing fitness (ln) (37 °C)
AAGAAGCAAUAUUACGCAUA	-1.29 ± 0.11	-0.0901 ± 0.12
GGUGAGCAAUAUUACGACGA	-1.32 ± 0.22	-0.954 ± 0.34
GCCUAGCAAUAUUACGAAGC	-2.24 ± 0.13	-2.15 ± 0.19
AAUGAGCAAUAUUACGAUCA	–	-2.46 ± 0.31
CAAAAGCAAUAUUACGAGCG	-0.129 ± 0.077	0.342 ± 0.097
AGCGAGCAAUAUUACGCCUG	-3.09 ± 0.3	-2.24 ± 0.36
GAGCAGCAAUAUUACGUAAA	-1.89 ± 0.14	-1.13 ± 0.14
UGCGAGCAAUAUUACGAUGU	-3.53 ± 0.13	-2.97 ± 0.18
UAGGAGCAAUAUUACGACUU	-0.556 ± 0.14	0.485 ± 0.19
AUUGAGCAAUAUUACGGAAU	-1.59 ± 0.17	-1.28 ± 0.2
GAAGAGCAAUAUUACGGGAU	-3.63 ± 0.22	-3.16 ± 0.3
AUGGAGCAAUAUUACGACAU	-1.36 ± 0.017	-0.784 ± 0.035
CAUAAGCAAUAUUACGUAUG	-3.87 ± 0.2	-2.74 ± 0.23
GGAAAGCAAUAUUACGAGUG	-3.38 ± 0.12	-1.85 ± 0.1
UUGUAGCAAUAUUACGAAGG	–	-1.9 ± 0.47
CACUAGCAAUAUUACGAACG	-0.448 ± 0.071	0.647 ± 0.11
UUCGAGCAAUAUUACGCGUC	-2.99 ± 0.23	-2.34 ± 0.37
GCCGAGCAAUAUUACGACGC	-2.86 ± 0.23	-1.08 ± 0.21
UUGGAGCAAUAUUACGAUGU	-1.71 ± 0.44	-1.83 ± 0.35
CACCAGCAAUAUUACGGCUU	-1.91 ± 0.087	-0.758 ± 0.093
UCAAAGCAAUAUUACGGAAG	-2.03 ± 0.17	-2.38 ± 0.28
UGAUAGCAAUAUUACGAAGG	-2.96 ± 0.15	-2.26 ± 0.2
UAAAAGCAAUAUUACGGCCG	0.132 ± 0.12	0.444 ± 0.17
CUUUAGCAAUAUUACGCGGG	-3.35 ± 0.3	-2.31 ± 0.32
GAUGAGCAAUAUUACGACGA	-1.5 ± 0.13	-1.3 ± 0.15

Sequence	self-splicing fitness (ln) (30 °C)	self-splicing fitness (ln) (37 °C)
UUUCAGCAAUAUUACGUGUU	-3.42 ± 0.13	-2.87 ± 0.14
UCUAAGCAAUAUUACGUUGG	-1.6 ± 0.064	-1.37 ± 0.086
AGUAAGCAAUAUUACGGUGC	-4.4 ± 0.46	-1.37 ± 0.17
CAACAGCAAUAUUACGGGUA	-3.03 ± 0.12	-1.22 ± 0.084
AACGAGCAAUAUUACGGCGU	-1.84 ± 0.098	-0.572 ± 0.088
GCGGAGCAAUAUUACGCGGA	-2.07 ± 0.33	–
ACAUAGCAAUAUUACGUAAG	-1.94 ± 0.085	-1.6 ± 0.12
CCAUAGCAAUAUUACGGGCG	-1.02 ± 0.097	-0.644 ± 0.11
GGAGAGCAAUAUUACGUUUU	-3.36 ± 0.23	-1.15 ± 0.3
UUUAAGCAAUAUUACGUUGC	-3.26 ± 0.43	-2.97 ± 0.38
AUCGAGCAAUAUUACGUGUG	-3.04 ± 0.13	-2.92 ± 0.18
GAGUAGCAAUAUUACGAGGC	–	-2.86 ± 0.44
UACGAGCAAUAUUACGAGAG	-3.93 ± 0.28	-2.8 ± 0.22
AGUAAGCAAUAUUACGGAUA	-2.85 ± 0.28	-1.69 ± 0.21
GUAGAGCAAUAUUACGGACC	-1.22 ± 0.14	0.305 ± 0.2
GGUAAGCAAUAUUACGUCUC	-1.04 ± 0.13	-1.27 ± 0.16
AUAUAGCAAUAUUACGACUU	0.217 ± 0.073	-0.272 ± 0.075
AAUUAGCAAUAUUACGGCGG	-1.81 ± 0.11	-0.193 ± 0.13
ACGCAGCAAUAUUACGAUGU	-2.13 ± 0.057	-1.16 ± 0.078
GCUUAGCAAUAUUACGGCCU	-1.05 ± 0.18	-1.57 ± 0.25
GGCUAGCAAUAUUACGUAUG	-2.06 ± 0.13	-0.678 ± 0.13
GUGCAGCAAUAUUACGGUUG	-2.62 ± 0.19	-1.95 ± 0.16
CCAGAGCAAUAUUACGAACA	-2.39 ± 0.47	-1.48 ± 0.49
UAUAAGCAAUAUUACGUCGC	-3.29 ± 0.28	-2.24 ± 0.37
CUGGAGCAAUAUUACGCAUC	–	-0.757 ± 0.42
